± gives the uncertainty stated by the source.
Experiment: self-splicing fitness, log relative to wild type (ln ratio); higher = more splicing; Tetrahymena group I intron in knt gene, E. coli kanamycin selection, DiMSum; sequences stand for … in CUCUCU…GGAGGGAAAAGUUAUCAGGCAUGCACCUGGUAGCUAGUCUUUAAACCAAUAGAUUGCAUCGGUUUAAAAGGCAAGACCGUCAAAUUGCGGGAAAGGGGUCAACAGCCGUUCAGUACCAAGUCUCAGGGGAAACUUUGAGAUGGCCUUGCAAAGGGUAUGGUAAUAAGCUGACGGACAUGGUCCUAACCACGCAGCCAAGUCCUAAGUCAACAGAUCUUCUGUUGAUAUGGAUGCAGUUCACAGACUAAAUGUCGGUCGGGGAAGAUGUAUUCUUCUCAUAAGAUAUAGUCGGACCUCUCCUUAAUGGGAGCUAGCGGAUGAAGUGAUGCAACACUGGAGCCGCUGGGAACUAAUUUGUAUGCGAAAGUAUAUUGAUUAGUUUUGGAGUACUCGUGGUCG
In short: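 Pooled colonies went to amplicon sequencing on an Illumina HiSeq 2500 after six replicate transformations. The plates were LB agar with 100 μg/mL carbenicillin, 50 μM IPTG and 0.2% rhamnose, with or without 25 μg/mL kanamycin, incubated overnight at 37°C or 30°C. The E. coli BL21(DE3) library had all eight P1ex-region intron nucleotides randomised, the intron placed in the knt kanamycin-resistance gene on pET-22b(+). DiMSum fitness is the error-weighted combination of replicate fold changes, kanamycin against none, normalised to wild type.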

Row | Sequence | self-splicing fitness (ln) (30 °C) | self-splicing fitness (ln) (37 °C)
1 | UGCAAGCAAUAUUACGACGG | -0.954 ± 0.074 | -0.946 ± 0.079
2 | UCGUAGCAAUAUUACGAUUA | -2 ± 0.3 | -0.78 ± 0.17
3 | GAGUAGCAAUAUUACGACGU | 0.156 ± 0.093 | 0.524 ± 0.11
4 | AGGUAGCAAUAUUACGAUUG | -3.575 ± 0.026 | -2.44 ± 0.04
5 | GCGUAGCAAUAUUACGAGUA | -1.64 ± 0.16 | -0.623 ± 0.13
6 | ACUCAGCAAUAUUACGAAAA | -1.32 ± 0.11 | -1.36 ± 0.16
7 | CUAAAGCAAUAUUACGAUAC |  | -2.32 ± 0.31
8 | GGGGAGCAAUAUUACGCGAA | -2.75 ± 0.4 | 0.457 ± 0.31
9 | UGCCAGCAAUAUUACGCGGC |  | -1.85 ± 0.35
10 | UUUGAGCAAUAUUACGUUCU | -3.55 ± 0.32 | -2.58 ± 0.25
11 | GGUCAGCAAUAUUACGGCUU | -1.18 ± 0.087 | -0.0465 ± 0.12
12 | CACCAGCAAUAUUACGUAGG | -0.739 ± 0.05 | -0.0785 ± 0.074
13 | UGAAAGCAAUAUUACGUGGC | -3.37 ± 0.17 | -2.73 ± 0.25
14 | CACCAGCAAUAUUACGAGAG | -0.95 ± 0.054 | -0.673 ± 0.069
15 | UACUAGCAAUAUUACGUAAG | -4.32 ± 0.31 | -3.07 ± 0.3
16 | CCAAAGCAAUAUUACGGUCC | -4.23 ± 0.46 | -2.13 ± 0.3
17 | CGGCAGCAAUAUUACGGUCC | -1.34 ± 0.082 | 0.00991 ± 0.09
18 | GGUUAGCAAUAUUACGCUCU | -2.24 ± 0.18 | -0.596 ± 0.17
19 | UCAAAGCAAUAUUACGUUUG | -3.43 ± 0.16 | -1.82 ± 0.14
20 | AUCCAGCAAUAUUACGUCCC | -0.894 ± 0.22 | -1.1 ± 0.28
21 | CAGUAGCAAUAUUACGACGG | -0.119 ± 0.085 | 0.411 ± 0.11
22 | CGGCAGCAAUAUUACGUGGG | -3.46 ± 0.14 | -2.24 ± 0.11
23 | AGAUAGCAAUAUUACGUUGA | -3.51 ± 0.24 | -1.5 ± 0.14
24 | UUUUAGCAAUAUUACGGGAA | -1.16 ± 0.16 | -1.19 ± 0.13
25 | CAGCAGCAAUAUUACGAUGC | -4.05 ± 0.28 | -2.89 ± 0.34

Row | Sequence | self-splicing fitness (ln) (30 °C) | self-splicing fitness (ln) (37 °C)
26 | UUGUAGCAAUAUUACGACAC | -1.44 ± 0.22 | -1.48 ± 0.32
27 | CGAUAGCAAUAUUACGCUCG |  | -2.03 ± 0.47
28 | CUAAAGCAAUAUUACGGAUA | -3.45 ± 0.19 | -2.36 ± 0.2
29 | GAACAGCAAUAUUACGGCGG | -3.13 ± 0.16 | -0.604 ± 0.12
30 | GCUUAGCAAUAUUACGGGUG | -0.826 ± 0.059 | -0.144 ± 0.075
31 | GUCGAGCAAUAUUACGAAGG | -3.61 ± 0.47 | 
32 | AGUCAGCAAUAUUACGGUAC | -3 ± 0.16 | -1.88 ± 0.21
33 | GUUCAGCAAUAUUACGUCGG | -3.7 ± 0.21 | -2.39 ± 0.23
34 | UACUAGCAAUAUUACGCCCG | 0.342 ± 0.24 | -1.04 ± 0.2
35 | UCCCAGCAAUAUUACGGGAG | -3.44 ± 0.14 | -2.01 ± 0.11
36 | CAUUAGCAAUAUUACGUUUA | -1.42 ± 0.15 | -1.48 ± 0.15
37 | UUUAAGCAAUAUUACGCAUC | -2.75 ± 0.36 | -2.25 ± 0.32
38 | AAUGAGCAAUAUUACGAUUG | -1.99 ± 0.38 | -1.14 ± 0.26
39 | UAUCAGCAAUAUUACGUAUC | -2.11 ± 0.08 | -0.822 ± 0.096
40 | UCACAGCAAUAUUACGCUCU | -2.38 ± 0.16 | -3.34 ± 0.47
41 | CAGGAGCAAUAUUACGGCCA |  | 0.122 ± 0.3
42 | UUUAAGCAAUAUUACGAGGA | -1.85 ± 0.13 | -1.22 ± 0.15
43 | GUUGAGCAAUAUUACGCCUC | -2.09 ± 0.39 | 
44 | ACAAAGCAAUAUUACGGAGU | -3.79 ± 0.15 | -2.9 ± 0.17
45 | GCGAAGCAAUAUUACGAUAC | -1.99 ± 0.17 | -0.487 ± 0.15
46 | AGAGAGCAAUAUUACGCACU | -3.16 ± 0.34 | -2.41 ± 0.32
47 | CCGGAGCAAUAUUACGUUUG | -1.54 ± 0.15 | -0.756 ± 0.15
48 | CGGCAGCAAUAUUACGGCGC | -2.64 ± 0.27 | -2.53 ± 0.24
49 | GUGAAGCAAUAUUACGGCGA | 0.0822 ± 0.15 | 0.297 ± 0.18
50 | GCGGAGCAAUAUUACGCCGU | -1.4 ± 0.28 | 

Row | Sequence | self-splicing fitness (ln) (30 °C) | self-splicing fitness (ln) (37 °C)
51 | ACGCAGCAAUAUUACGUCAU | -3.44 ± 0.12 | -1.52 ± 0.11
52 | AUAGAGCAAUAUUACGCGCA | -0.749 ± 0.14 | -0.253 ± 0.17
53 | UCUUAGCAAUAUUACGCCCG | -1.07 ± 0.32 | -1.34 ± 0.34
54 | GACUAGCAAUAUUACGCAUA | -0.568 ± 0.1 | -0.145 ± 0.096
55 | UUCGAGCAAUAUUACGUAAG | -3.03 ± 0.36 | -3.24 ± 0.42
56 | ACAUAGCAAUAUUACGACUA | -0.666 ± 0.11 | -0.473 ± 0.1
57 | UCCCAGCAAUAUUACGCACC |  | -1.21 ± 0.35
58 | UGGAAGCAAUAUUACGUAUC | -3.27 ± 0.27 | -2.28 ± 0.27
59 | AGCGAGCAAUAUUACGCGGG | -2.55 ± 0.24 | -2.54 ± 0.36
60 | CAGGAGCAAUAUUACGGAAG | -2.2 ± 0.13 | -1.67 ± 0.14
61 | AGAGAGCAAUAUUACGGUGC | -4.34 ± 0.42 | -2.07 ± 0.29
62 | UCUGAGCAAUAUUACGAUAG | -3.28 ± 0.18 | -1.93 ± 0.18
63 | GUUCAGCAAUAUUACGUACG | -1.32 ± 0.1 | -0.0258 ± 0.11
64 | CUUUAGCAAUAUUACGACGA |  | -1.82 ± 0.24
65 | UUCCAGCAAUAUUACGAAAA | -0.987 ± 0.11 | 0.126 ± 0.11
66 | CGUUAGCAAUAUUACGUAUA | -2.85 ± 0.28 | -2.49 ± 0.31
67 | GCACAGCAAUAUUACGAUCA | -0.983 ± 0.13 | -0.209 ± 0.14
68 | GAUUAGCAAUAUUACGAUUA | -0.22 ± 0.1 | -0.0882 ± 0.092
69 | AGUUAGCAAUAUUACGCAAU | -1.6 ± 0.18 | -2.52 ± 0.29
70 | GAUCAGCAAUAUUACGGGGA | -1.61 ± 0.12 | -0.776 ± 0.12
71 | AAGAAGCAAUAUUACGCGGG | -2.95 ± 0.2 | -0.684 ± 0.11
72 | AAGCAGCAAUAUUACGCGGC | -3.33 ± 0.35 | -2.4 ± 0.24
73 | UCUAAGCAAUAUUACGUCUA | -2.51 ± 0.33 | -2.25 ± 0.4
74 | UAGGAGCAAUAUUACGGGGG |  | -2.74 ± 0.41
75 | AUAUAGCAAUAUUACGGCUA | -0.422 ± 0.1 | -0.506 ± 0.12

Row | Sequence | self-splicing fitness (ln) (30 °C) | self-splicing fitness (ln) (37 °C)
76 | AUCGAGCAAUAUUACGGUUG | -3.96 ± 0.42 | -3.32 ± 0.37
77 | GCCCAGCAAUAUUACGAGAA | -0.685 ± 0.28 | -0.511 ± 0.21
78 | AUCCAGCAAUAUUACGUGCC | -3.16 ± 0.21 | -1.09 ± 0.16
79 | UUUCAGCAAUAUUACGAACU | -1.23 ± 0.092 | 0.244 ± 0.1
80 | GAUUAGCAAUAUUACGUUGU | -2.91 ± 0.23 | -2.15 ± 0.28
81 | GAUUAGCAAUAUUACGAGGA | -2.13 ± 0.29 | -2.08 ± 0.31
82 | AGCUAGCAAUAUUACGCAUC | -2.95 ± 0.36 | 
83 | CGCGAGCAAUAUUACGGCUG | -0.795 ± 0.094 | -0.637 ± 0.13
84 | CAUUAGCAAUAUUACGCCAC | -2.71 ± 0.44 | -2.41 ± 0.35
85 | GGACAGCAAUAUUACGUGAU | -0.212 ± 0.061 | -0.0525 ± 0.078
86 | CUCAAGCAAUAUUACGUUUU | -3.35 ± 0.14 | -2.34 ± 0.18
87 | CCAUAGCAAUAUUACGACAA | -3.06 ± 0.41 | -2.94 ± 0.35
88 | CUCUAGCAAUAUUACGACAA |  | -2.35 ± 0.28
89 | UAUGAGCAAUAUUACGAUCU | -1.76 ± 0.23 | -2 ± 0.31
90 | AUGGAGCAAUAUUACGGUAA |  | -1.08 ± 0.16
91 | CCAUAGCAAUAUUACGCCAA | -2.76 ± 0.43 | -1.58 ± 0.25
92 | GGAAAGCAAUAUUACGGCGA | -0.475 ± 0.1 | -0.211 ± 0.089
93 | UCAUAGCAAUAUUACGCUGG | -3.05 ± 0.19 | -2.3 ± 0.16
94 | UGGUAGCAAUAUUACGCCAU |  | -1.09 ± 0.48
95 | UGCUAGCAAUAUUACGUCGA | -1.18 ± 0.13 | -1.14 ± 0.18
96 | GGUCAGCAAUAUUACGUUGA | -3.12 ± 0.27 | -1.76 ± 0.25
97 | AUCCAGCAAUAUUACGGGAG | -1.63 ± 0.066 | -1.32 ± 0.074
98 | AUAAAGCAAUAUUACGGCAA | 0.284 ± 0.085 | -0.0372 ± 0.11
99 | UAUGAGCAAUAUUACGGUAG | -1.79 ± 0.37 | -1.88 ± 0.36
